In patent US20240218346A1, “PHOSPHOKETOLASE VARIANTS AND METHODS OF USE” (Genomatica, Inc., priority 2021, published 2024):
Positions count from the first letter of the chain named. In names and notes the source's numbering stands.

T1: Bifidobacterium adolescentis fructose-6-phosphate phosphoketolase (H2), wild type, SEQ ID NO: 1 (Bifidobacterium adolescentis, UniProt A1A185)
T1 sequence (A1A185 with tags, fused parts or gaps): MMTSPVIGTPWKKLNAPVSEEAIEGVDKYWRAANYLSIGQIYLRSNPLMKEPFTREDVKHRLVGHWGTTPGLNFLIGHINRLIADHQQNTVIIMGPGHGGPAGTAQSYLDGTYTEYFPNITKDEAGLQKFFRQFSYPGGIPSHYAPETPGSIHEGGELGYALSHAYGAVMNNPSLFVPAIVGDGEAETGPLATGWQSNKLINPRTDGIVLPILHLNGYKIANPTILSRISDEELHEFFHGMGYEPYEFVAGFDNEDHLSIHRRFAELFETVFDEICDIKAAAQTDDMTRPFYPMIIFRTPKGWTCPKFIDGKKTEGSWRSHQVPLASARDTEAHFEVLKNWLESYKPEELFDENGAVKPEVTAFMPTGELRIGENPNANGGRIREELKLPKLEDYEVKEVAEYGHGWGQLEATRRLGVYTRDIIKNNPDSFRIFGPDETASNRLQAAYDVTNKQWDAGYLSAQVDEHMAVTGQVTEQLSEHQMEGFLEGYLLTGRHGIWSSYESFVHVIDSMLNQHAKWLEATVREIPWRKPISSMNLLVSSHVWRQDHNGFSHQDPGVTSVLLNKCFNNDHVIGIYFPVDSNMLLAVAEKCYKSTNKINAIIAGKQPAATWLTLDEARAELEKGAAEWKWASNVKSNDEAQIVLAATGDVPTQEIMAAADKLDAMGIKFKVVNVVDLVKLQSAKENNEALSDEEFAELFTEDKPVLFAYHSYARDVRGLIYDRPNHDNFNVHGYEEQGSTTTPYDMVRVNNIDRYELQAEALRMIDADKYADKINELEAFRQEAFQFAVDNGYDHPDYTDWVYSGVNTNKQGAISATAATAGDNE

B1: Bifidobacterium adolescentis fructose-6-phosphate phosphoketolase (H2, SEQ ID NO: 1) variant H239R (Bifidobacterium adolescentis ATCC 15703; H238R) (protein)
chain: T1 sequence (A1A185 with tags, fused parts or gaps) with H239R
B2: Bifidobacterium adolescentis fructose-6-phosphate phosphoketolase (H2, SEQ ID NO: 1) variant Y799I (Bifidobacterium adolescentis ATCC 15703; Y798I) (protein)
chain: T1 sequence (A1A185 with tags, fused parts or gaps) with Y799I
B3: Bifidobacterium adolescentis fructose-6-phosphate phosphoketolase (H2, SEQ ID NO: 1) variant M483C (Bifidobacterium adolescentis ATCC 15703; M482C) (protein)
chain: T1 sequence (A1A185 with tags, fused parts or gaps) with M483C
B4: Bifidobacterium adolescentis fructose-6-phosphate phosphoketolase (H2, SEQ ID NO: 1) variant Q759L (Bifidobacterium adolescentis ATCC 15703; Q758L) (protein)
chain: T1 sequence (A1A185 with tags, fused parts or gaps) with Q759L
B5: Bifidobacterium adolescentis fructose-6-phosphate phosphoketolase (H2, SEQ ID NO: 1) variant H257P (Bifidobacterium adolescentis ATCC 15703; H256P) (protein)
chain: T1 sequence (A1A185 with tags, fused parts or gaps) with H257P
B6: Bifidobacterium adolescentis fructose-6-phosphate phosphoketolase (H2, SEQ ID NO: 1) variant S504A (Bifidobacterium adolescentis ATCC 15703; S503A) (protein)
chain: T1 sequence (A1A185 with tags, fused parts or gaps) with S504A
B7: Bifidobacterium adolescentis fructose-6-phosphate phosphoketolase (H2, SEQ ID NO: 1) variant Y804W (Bifidobacterium adolescentis ATCC 15703; Y803W) (protein)
chain: T1 sequence (A1A185 with tags, fused parts or gaps) with Y804W
B8: Bifidobacterium adolescentis fructose-6-phosphate phosphoketolase (H2, SEQ ID NO: 1) variant C567S (Bifidobacterium adolescentis ATCC 15703; C566S) (protein)
chain: T1 sequence (A1A185 with tags, fused parts or gaps) with C567S

What was measured:
[1] = system: Collinsella aerofaciens xylulose-5-phosphate/fructose-6-phosphate phosphoketolase (D3), wild type, SEQ ID NO: 2; experiment: Kinetics, E4PDH based colorimetric assay for FPK activity (F6P); assay type: biochemical
From the text: Mutagenesis techniques were used to generate engineered phosphoketolases based on one of two template phosphoketolases (the fructose-6-phosphate phosphoketolase from Bifidobacterium adolescentis (strain ATCC 15703 DSM 20083 NCTC 11814 E194a) (“H2”; UniProtKB Accession No. A1A185_BIFAA; SEQ ID NOs: 1 and 3) orthe xylulose-5-phosphate/fructose-6-phosphate phosphoketolase from Collinsella aerofaciens (“D3”; UniProt KB Accession No. A0A174LGR4_9ACTN; SEQ ID NOs: 2 and 4)). Engineered phosphoketolase were generated using rational protein engineering. Structural homology models were constructed for H2 and D3. The substrate docking with Xu5P and F6P were also performed. In total, 2000 variants were designed. There are 1031 constructs designed based on H2, and 969 based on D3. 1999 constructs were received from DNA synthesis. […]
(§1) Further biochemical characterization of selected variants was conducted and the FPK activity of these variants were assessed. […] The kinetics parameters measured during biochemical characterization are summarized below in Table 5. […]
The product of FPK is coupled to NADH production via a one-step enzymatic reaction of its product with E4PDH. NADH production overtime was measured by absorbance at 340 nm. […]
5 μL of half diluted cell lysate was added into 45 μL of reaction buffer. […] The reaction was recorded for a 10-min kinetics reading at 340 nm at room temperature.

[2] = biological target: T1, Bifidobacterium adolescentis fructose-6-phosphate phosphoketolase (H2), wild type, SEQ ID NO: 1; experiment: Kinetics, Hydroxymate based colorimetric assay for FPK activity (F6P); assay type: biochemical
Method: (§2) Further biochemical characterization of selected variants was conducted and the FPK activity of these variants were assessed. […] The FPK kinetics assay was based on the E4PDH based Colorimetric Assay described herein for the 12 hits and the two controls (SEQ ID NO: 1 and SEQ ID NO: 2).
The product of FPK is coupled to ferric-hydroxamate complex production via hydroxamate reactions of its product with hydroxylamine and ferric chloride. Ferric-hydroxamate complex production was measured by absorbance at 520 nm. This is an end-point assay.
Cell lysate preparation was the same described as above. One typical reaction contained 7.5 uL lysate and 67.5 μL reaction buffer. Reaction buffer contained 1 mM of NADH and 5 mM of F6P substrate for primary screening. 2 mM of F6P was used in secondary screening in reaction buffer 1. The reaction in a plate was incubated at room temperature for 30 minutes. After the 30-min incubation, 25 μL of 2 M hydroxylamine in Tris-HCl solution was added into one reaction to initiate the hydroxamate reaction. The reaction was incubated at room temperature for 10 minutes and then sent to the plate reader for absorption at 520 nm.

[3] = biological target: T1, Bifidobacterium adolescentis fructose-6-phosphate phosphoketolase (H2), wild type, SEQ ID NO: 1; experiment: Kinetics, E4PDH based colorimetric assay for FPK activity (F6P); assay type: biochemical
Method: as §2

[4] = system: Collinsella aerofaciens xylulose-5-phosphate/fructose-6-phosphate phosphoketolase (D3), wild type, SEQ ID NO: 2; experiment: Kinetics, Hydroxymate based colorimetric assay for FPK activity (F6P); assay type: biochemical
From the text: Mutagenesis techniques were used to generate engineered phosphoketolases based on one of two template phosphoketolases (the fructose-6-phosphate phosphoketolase from Bifidobacterium adolescentis (strain ATCC 15703 DSM 20083 NCTC 11814 E194a) (“H2”; UniProtKB Accession No. A1A185_BIFAA; SEQ ID NOs: 1 and 3) orthe xylulose-5-phosphate/fructose-6-phosphate phosphoketolase from Collinsella aerofaciens (“D3”; UniProt KB Accession No. A0A174LGR4_9ACTN; SEQ ID NOs: 2 and 4)). Engineered phosphoketolase were generated using rational protein engineering. Structural homology models were constructed for H2 and D3. The substrate docking with Xu5P and F6P were also performed. In total, 2000 variants were designed. […]
as §1
The product of FPK is coupled to ferric-hydroxamate complex production via hydroxamate reactions of its product with hydroxylamine and ferric chloride. Ferric-hydroxamate complex production was measured by absorbance at 520 nm. […]
Cell lysate preparation was the same described as above. […] The reaction was incubated at room temperature for 10 minutes and then sent to the plate reader for absorption at 520 nm.

[5] = substrate: O=P(O)(O)OC[C@H]1OC(O)(CO)[C@@H](O)[C@@H]1O; experiment: Kinetics, E4PDH based colorimetric assay for FPK activity (F6P); assay type: biochemical, Bifidobacterium adolescentis; settings: other: F6P
From the text: Mutagenesis techniques were used to generate engineered phosphoketolases based on one of two template phosphoketolases (the fructose-6-phosphate phosphoketolase from Bifidobacterium adolescentis (strain ATCC 15703 DSM 20083 NCTC 11814 E194a) (“H2”; UniProtKB Accession No. A1A185_BIFAA; SEQ ID NOs: 1 and 3) orthe xylulose-5-phosphate/fructose-6-phosphate phosphoketolase from Collinsella aerofaciens (“D3”; UniProt KB Accession No. A0A174LGR4_9ACTN; SEQ ID NOs: 2 and 4)). Engineered phosphoketolase were generated using rational protein engineering. Structural homology models were constructed for H2 and D3. The substrate docking with Xu5P and F6P were also performed. In total, 2000 variants were designed. There are 1031 constructs designed based on H2, and 969 based on D3. 1999 constructs were received from DNA synthesis. The variants were then tested for XPK and/or FPK activity in in vitro primary and secondary screens as described below.
Further biochemical characterization of selected variants was conducted and the FPK activity of these variants were assessed. 12 hits were selected from the secondary screening results of the phosphoketolase library screen for in vitro biochemical characterization. All 12 of the hits selected are variants based on SEQ ID NO: 1. The kinetics parameters measured during biochemical characterization are summarized below in Table 5. The FPK kinetics assay was based on the E4PDH based Colorimetric Assay described herein for the 12 hits and the two controls (SEQ ID NO: 1 and SEQ ID NO: 2).
The product of FPK is coupled to NADH production via a one-step enzymatic reaction of its product with E4PDH. NADH production overtime was measured by absorbance at 340 nm. The reactions are listed below.
5 μL of half diluted cell lysate was added into 45 μL of reaction buffer. The reaction buffer contained an approximate amount of E4PDH enzyme, 1 mM NADH and 5 mM F6P as substrate for primary screening. 2 mM F6P was used for secondary screening. The reaction was recorded for a 10-min kinetics reading at 340 nm at room temperature.

Row | Molecule | Km [5] [mM] | kcat [5] [s⁻¹] | kcat/Km [5] [M⁻¹ s⁻¹] | also measured
1 | O=P(O)(O)OC[C@H]1OC(O)(CO)[C@@H](O)[C@@H]1O (stereo partly drawn) [F6P, D-fructose-6-phosphate] | – | – | – | Km [1]: 27.9 mM; kcat [1]: 7.824 s⁻¹; Km [2]: 1.04 mM; kcat [2]: 5.933 s⁻¹; Km [3]: 4.89 mM; kcat [3]: 30.07 s⁻¹; Km [4]: 9.31 mM; kcat [4]: 19.57 s⁻¹
2 | B1 | 2.432 | 57.9 | 23800 | –
3 | B2 | 4.53 | 33.6 | 7430 | –
4 | B3 | 2.299 | 34 | 14800 | –
5 | B4 | 3.596 | 35.6 | 9890 | –
6 | B5 | 2.422 | 25 | 10300 | –
7 | B6 | 3.347 | 26.3 | 7850 | –
8 | B7 | 2.86 | 30.8 | 10800 | –
9 | B8 | 3.046 | 26.4 | 8660 | –
